The record followed here is PMC5769602, “Functional assays for the assessment of the pathogenicity of variants of GOSR2, an ER-to-Golgi SNARE involved in progressive myoclonus epilepsies” (Disease Models & Mechanisms, 2017).

The target of series [1] is T1, Sed5 211-320 (SNARE domain) (yeast, UniProt Q01590 211-320).
T1 construct: Sed5, yeast ER-to-Golgi Qa-SNARE, SNARE domain, residues 211-320; also called Qa-SNARE; source: E. coli BL21 (DE3), purified (Ni2+-NTA, ion exchange)
T1 sequence (looked up): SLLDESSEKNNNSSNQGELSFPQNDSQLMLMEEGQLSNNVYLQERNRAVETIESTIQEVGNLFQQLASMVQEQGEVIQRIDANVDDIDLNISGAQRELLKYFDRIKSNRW
In words: SEC; quaternary SNARE complexes assembled from equal amounts of purified Sed5 (211-320), Bet1 (1-118), Sec22 (126-186) and one Bos1 (151-221) variant, incubated overnight; Superdex 75, PBS with 200 mM NaCl. Conditions: both partners purified. On the technique in general: Size exclusion chromatography separates by hydrodynamic size, large species first.

The target of series [2] is T2, Bet1 1-118 (yeast, UniProt P22804 1-118).
T2 construct: Bet1, yeast ER-to-Golgi Qc-SNARE, residues 1-118 (not only the SNARE domain); also called Qc-SNARE; source: E. coli BL21 (DE3), purified (Ni2+-NTA, ion exchange)
T2 sequence (looked up): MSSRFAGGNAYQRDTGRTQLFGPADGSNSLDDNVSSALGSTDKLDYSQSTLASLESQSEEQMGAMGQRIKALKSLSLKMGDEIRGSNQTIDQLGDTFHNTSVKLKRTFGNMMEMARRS
Put plainly: fluorescence polarisation; fluorescence anisotropy over time; 500 nM OG-labelled Sec22 126-186 C131OG mixed with 2.7 uM Sed5 211-320, Bet1 1-118 and Bos1 151-221 or its mutants; PBS, 25°C. Conditions: both partners purified.

Series [3] concerns the molecule itself. In words: SEC; individual purified SNARE domains of the Bos1 variants (oligomeric state of single proteins); Superdex 75, PBS with 200 mM NaCl.
Series [4] deals with T1, Sed5 211-320 (SNARE domain). Put plainly: fluorescence polarisation; fluorescence anisotropy over time; 500 nM OG-labelled Sec22 126-186 C131OG mixed with 2.7 uM Sed5 211-320, Bet1 1-118 and Bos1 151-221 or its mutants; PBS, 25°C. Conditions: both partners purified. A general note: Fluorescence polarisation rises when a labelled molecule tumbles more slowly, as on binding a larger partner.

Series [5] deals with T2, Bet1 1-118. In words: SEC; quaternary SNARE complexes assembled from equal amounts of purified Sed5 (211-320), Bet1 (1-118), Sec22 (126-186) and one Bos1 (151-221) variant, incubated overnight; Superdex 75, PBS with 200 mM NaCl. The settings on record: both partners purified.

B1: Bos1 151-221 wild type (SNARE domain) (domain or fragment, Saccharomyces cerevisiae, UniProt P25385 151-221, looked up)
chain: LYQGLQKEQSVFERGNAQLDYILEMGQQSFENIVEQNKILSKVQDRMSNGLRTLGVSEQTITSINKRVFKD
notes: Bos1, Saccharomyces cerevisiae, SNARE domain, residues 151-221; Forms homo-oligomers of unstated size as the isolated SNARE domain; also called Bos1 wt; wild-type Bos1; source: E. coli BL21 (DE3), purified (Ni2+-NTA, ion exchange)
Take B1: the binding result (in series [1]; with Bet1 1-118 [2]; in series [3]) was “binds” throughout.

B2: Bos1 151-221 p.Gly176Trp (domain or fragment, Saccharomyces cerevisiae, UniProt P25385 151-221, looked up)
chain: LYQGLQKEQSVFERGNAQLDYILEMWQQSFENIVEQNKILSKVQDRMSNGLRTLGVSEQTITSINKRVFKD
notes: Bos1, Saccharomyces cerevisiae, SNARE domain, residues 151-221, with Gly176Trp (orthologous to GOSR2 p.Gly144Trp); also called Bos1 p.Gly176Trp; source: E. coli BL21 (DE3), purified (Ni2+-NTA, ion exchange)
Turning to B2, the binding result (in the series with Bet1 1-118 [2]; in series [4]) was “binds” each time.

B3: Bos1 151-221 p.Gly176Asp (domain or fragment, Saccharomyces cerevisiae, UniProt P25385 151-221, looked up)
chain: LYQGLQKEQSVFERGNAQLDYILEMDQQSFENIVEQNKILSKVQDRMSNGLRTLGVSEQTITSINKRVFKD
notes: Bos1, Saccharomyces cerevisiae, SNARE domain, residues 151-221, with the designed Gly176Asp mutation; also called Bos1 p.Gly176Asp; source: E. coli BL21 (DE3), purified (Ni2+-NTA, ion exchange)
B3: the binding result (with Bet1 1-118 [5]; in series [1]; in series [3]) was “binds” throughout.

B4: Bos1 151-221 p.Arg196del (domain or fragment, Saccharomyces cerevisiae, UniProt P25385 151-221, looked up)
chain: LYQGLQKEQSVFERGNAQLDYILEMGQQSFENIVEQNKILSKVQDMSNGLRTLGVSEQTITSINKRVFKD
notes: Bos1, Saccharomyces cerevisiae, SNARE domain, residues 151-221, with arginine 196 deleted (orthologous to GOSR2 p.Lys164del); also called Bos1 p.Arg196del; source: E. coli BL21 (DE3), purified (Ni2+-NTA, ion exchange)
With B4, the binding result (with Bet1 1-118 [5]; in series [1]; in series [3]) was “binds” in each case.
